Measured values taken from patent publication US20110300138A1 (published 2011).

What was measured:
[1] = molecular target: thyroid stimulating hormone receptor (TSHR), full length human TSHR (human) (UniProt P16473); assay: TSH-biotin competition ELISA, TSHR coated wells; negative control, 10 µg/mL in HBD serum
[2] = molecular target: TSH receptor (TSHR), full length human, coated on tubes (human) (UniProt P16473); assay: inhibition of 125I-K1-18 IgG binding to TSHR coated tubes; competitor 125I-K1-18 IgG; negative control sample at 0.01 µg/mL in HBD serum
[3] = molecular target: human thyroid stimulating hormone receptor (TSHR), full length (human) (UniProt P16473); assay: 125I-K1-70 Fab (competitor) binding to TSHR coated tubes; negative control MAb 10 µg/mL in assay buffer
[4] = molecular target: TSH receptor (TSHR) coated on tubes (human) (UniProt P16473); assay: inhibition of 125I-K1-70 IgG binding to TSHR coated tubes; negative control 1 µg/mL in assay buffer
[5] = molecular target: TSH receptor (TSHR) coated on tubes (human) (UniProt P16473); assay: inhibition of 125I-K1-70 IgG binding to TSHR coated tubes; negative control 0.001 µg/mL in HBD serum pool
[6] = molecular target: human thyroid stimulating hormone receptor (TSHR), full length (human) (UniProt P16473); assay: 125I-K1-70 Fab (competitor) binding to TSHR coated tubes; negative control MAb 0.1 µg/mL in HBD serum
[7] = molecular target: TSH receptor (TSHR) coated on tubes (human) (UniProt P16473); assay: inhibition of 125I-K1-70 IgG binding to TSHR coated tubes; negative control 0.1 µg/mL in HBD serum pool
[8] = molecular target: TSHR (full length) coated on tubes (human) (UniProt P16473); assay: inhibition of 125I-K1-18 Fab (competitor) binding to TSHR coated tubes; negative control 1 µg/mL in HBD serum
[9] = molecular target: human TSH receptor (full length) coated on ELISA plate wells (human) (UniProt P16473); assay: TSH-biotin binding inhibition ELISA, TSHR coated wells; 1 µg/mL in HBD serum pool; negative control MAb
[10] = molecular target: human thyroid stimulating hormone receptor (TSHR), full length (human) (UniProt P16473); assay: 125I-K1-70 Fab (competitor) binding to TSHR coated tubes; negative control MAb 0.01 µg/mL in HBD serum
[11] = molecular target: thyroid stimulating hormone receptor (TSHR), full length human TSHR (human) (UniProt P16473); assay: TSH-biotin competition ELISA, TSHR coated wells; negative control, 0.01 µg/mL in assay buffer
[12] = molecular target: human thyroid stimulating hormone receptor (TSHR), full length (human) (UniProt P16473); assay: 125I-K1-70 Fab (competitor) binding to TSHR coated tubes; negative control MAb 0.001 µg/mL in HBD serum
[13] = molecular target: TSHR (thyroid stimulating hormone receptor), full length human (human) (UniProt P16473); assay: competitor ^125I-K1-70 IgG, TSHR coated tubes; 0.01 µg/mL in HBD
[14] = molecular target: TSHR (full length) coated on tubes (human) (UniProt P16473); assay: inhibition of 125I-K1-18 Fab (competitor) binding to TSHR coated tubes; test sample 100 µg/mL in assay buffer
[15] = molecular target: TSH receptor (TSHR), full length human, coated on tubes (human) (UniProt P16473); assay: inhibition of 125I-TSH binding to TSHR coated tubes; 0.01 µg/mL, diluted in assay buffer
[16] = molecular target: human TSHR on transfected CHO cells (human, UniProt P16473 22-764); assay: cell-based or functional assay
[17] = molecular target: thyroid stimulating hormone receptor (TSHR), full length human TSHR (human) (UniProt P16473); assay: TSH-biotin competition ELISA, TSHR coated wells; 0.1 µg/mL in assay buffer
[18] = molecular target: human TSH receptor (full length) coated on ELISA plate wells (human) (UniProt P16473); assay: TSH-biotin binding inhibition ELISA, TSHR coated wells; 0.001 µg/mL in assay buffer + 100 µg/mL 5B3 IgG
[19] = molecular target: human TSH receptor (full length) coated on ELISA plate wells (human) (UniProt P16473); assay: TSH-biotin binding inhibition ELISA, TSHR coated wells; 0.003 µg/mL in assay buffer + 100 µg/mL 5B3 IgG
[20] = molecular target: TSHR with Phe134 mutated to Ala, expressed in CHO cells (human) (UniProt P16473); assay: cell-based or functional assay
[21] = molecular target: TSH receptor (TSHR), full length human, coated on tubes (human) (UniProt P16473); assay: inhibition of 125I-TSH binding to TSHR coated tubes; 10 µg/mL, diluted in HBD serum pool
[22] = molecular target: thyroid stimulating hormone receptor (full length human TSHR) (human) (UniProt P16473); assay: ELISA: inhibition of M22 Fab-peroxidase (competitor) binding to TSHR coated wells; 0.1 µg/mL, diluted in HBD serum pool
[23] = molecular target: TSH receptor (TSHR) coated on tubes (human) (UniProt P16473); assay: inhibition of 125I-K1-70 IgG binding to TSHR coated tubes; sample 0.01 µg/mL in assay buffer
[24] = molecular target: TSH receptor (TSHR), full length human, coated on tubes (human) (UniProt P16473); assay: inhibition of 125I-TSH binding to TSHR coated tubes; 10 µg/mL, diluted in assay buffer
[25] = molecular target: thyroid stimulating hormone receptor (full length human TSHR) (human) (UniProt P16473); assay: ELISA: inhibition of M22 Fab-peroxidase (competitor) binding to TSHR coated wells; 100 µg/mL, diluted in assay buffer
[26] = molecular target: TSH receptor (TSHR), full length human, coated on tubes (human) (UniProt P16473); assay: inhibition of 125I-K1-18 IgG (competitor) binding to TSHR coated tubes; test sample at 10 µg/mL in HBD serum pool

5B3 IgG (antibody)
Inhibition of binding (%) [1]: -1.6%
Inhibition of binding (%) [2]: -8.1%
Inhibition of binding (%) [3]: -2.1%
Inhibition of binding (%) [4]: -2.6%
Inhibition of binding (%) [5]: 3.7%
Inhibition of binding (%) [6]: -8.7%
Inhibition of binding (%) [7]: 9.4%
Inhibition of binding (%) [8]: -3.1%
% inhibition of TSH-biotin binding [9]: 8%
Inhibition of binding (%) [10]: -5.3%
Inhibition of binding (%) [11]: -5.9%
Inhibition of binding (%) [12]: -12.1%

9D33 IgG (antibody)
Inhibition of binding (%) [13]: 0.6%
Inhibition of binding (%) [14]: 81.5%
Inhibition of binding (%) [15]: 15.8%
TSHR constitutive (basal) cyclic AMP activity [16]: 2 x basal
Inhibition of binding (%) [17]: 59.7%

M22 IgG (antibody)
% inhibition of TSH-biotin binding [18]: -7.7%
% inhibition of TSH-biotin binding [19]: -0.5%

TSH (ligand)
Cyclic AMP produced, TSH 0.01 ng/mL, mutated TSHR [20]: 4.73 pmol/mL
Cyclic AMP produced, TSH 0.03 ng/mL, mutated TSHR [20]: 6.05 pmol/mL
Cyclic AMP produced, TSH 0.1 ng/mL, mutated TSHR [20]: 12.7 pmol/mL
Cyclic AMP produced, TSH 0.3 ng/mL, mutated TSHR [20]: 27.3 pmol/mL
Cyclic AMP produced, TSH 1 ng/mL, mutated TSHR [20]: 53.7 pmol/mL
Cyclic AMP produced, TSH 3 ng/mL, mutated TSHR [20]: 61.5 pmol/mL
Mutated/Wild type (%), TSH 0.01 ng/mL [20]: 189%
Mutated/Wild type (%), TSH 0.03 ng/mL [20]: 141%
Mutated/Wild type (%), TSH 0.1 ng/mL [20]: 120%
Mutated/Wild type (%), TSH 0.3 ng/mL [20]: 94%
Mutated/Wild type (%), TSH 1 ng/mL [20]: 102%
Mutated/Wild type (%), TSH 3 ng/mL [20]: 101%

B1: 5C9 IgG (antibody, from another filing, V domains shown)
VH: EVQLVESGGGLIQPGGSLRLSCAASGFTVSSNYMSWVRQAPGKGLEWVSVTYSGGSTSYADSVKGRFTISRDNSKNTLYLQMNSLRAEDTAVYYCARGGRYCSSISCYARSGCDYWGQGTLVTVSS
VL: AIQMTQSPSSLSASVGDRVTITCRASQSISNYLNWYQQKPGKAPKLLIYAASSLQSGVPSRFSGSGSGTDFTLTISSLQPEDFATYYCQQSYSSPSTTFGQGTKLEIK
Inhibition of binding (%) [21]: 39.9%
Inhibition of binding (%) [22]: 6.3%
Inhibition of binding (%) [23]: 4.5%
Inhibition of binding (%) [24]: 76.7%
Inhibition of binding (%) [25]: 24.6%
Inhibition of binding (%) [26]: 46.7%
